Assay results as given in publication PMC3950713.

What was measured:
Experiment in all cases: MST
HpDprA(5-217)H8E = molecular target: T1, HpDprA(5-217)H8E (Helicobacter pylori 26695, UniProt O25100 5-217, H8E)
T1 sequence: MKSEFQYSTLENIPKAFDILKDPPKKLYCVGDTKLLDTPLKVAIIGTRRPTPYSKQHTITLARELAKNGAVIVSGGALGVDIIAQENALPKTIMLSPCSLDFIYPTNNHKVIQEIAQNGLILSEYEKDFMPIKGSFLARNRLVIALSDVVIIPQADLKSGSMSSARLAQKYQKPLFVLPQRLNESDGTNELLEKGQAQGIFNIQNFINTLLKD

HpDprA(5-217)K137E = molecular target: T2, HpDprA(5-217)K137E (Helicobacter pylori 26695, UniProt O25100 5-217, K137E)
T2 sequence: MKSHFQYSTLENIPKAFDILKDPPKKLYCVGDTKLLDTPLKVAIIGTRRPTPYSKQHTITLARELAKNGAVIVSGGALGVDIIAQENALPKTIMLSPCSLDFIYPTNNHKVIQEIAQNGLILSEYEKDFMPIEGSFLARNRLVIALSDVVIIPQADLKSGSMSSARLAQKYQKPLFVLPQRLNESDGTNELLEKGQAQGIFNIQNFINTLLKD

HpDprA(5-217)Y108E = molecular target: T3, HpDprA(5-217)Y108E (Helicobacter pylori 26695, UniProt O25100 5-217, Y108E)
T3 sequence: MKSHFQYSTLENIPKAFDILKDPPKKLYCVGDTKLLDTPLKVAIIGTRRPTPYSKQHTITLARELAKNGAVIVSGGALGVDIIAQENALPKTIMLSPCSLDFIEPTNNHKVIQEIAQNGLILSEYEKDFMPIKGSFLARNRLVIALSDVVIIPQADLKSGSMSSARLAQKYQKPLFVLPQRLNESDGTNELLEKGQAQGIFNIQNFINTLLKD

HpDprA(5-217)R52E = molecular target: T4, HpDprA(5-217)R52E (Helicobacter pylori 26695, UniProt O25100 5-217, R52E)
T4 sequence: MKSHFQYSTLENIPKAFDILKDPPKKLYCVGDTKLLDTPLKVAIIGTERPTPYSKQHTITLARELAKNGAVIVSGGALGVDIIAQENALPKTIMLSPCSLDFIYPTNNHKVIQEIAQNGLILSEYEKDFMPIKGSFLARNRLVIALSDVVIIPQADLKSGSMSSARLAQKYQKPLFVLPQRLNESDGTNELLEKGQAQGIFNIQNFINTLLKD

HpDprA(5-217)R143E = molecular target: T5, HpDprA(5-217)R143E (Helicobacter pylori 26695, UniProt O25100 5-217, R143E)
T5 sequence: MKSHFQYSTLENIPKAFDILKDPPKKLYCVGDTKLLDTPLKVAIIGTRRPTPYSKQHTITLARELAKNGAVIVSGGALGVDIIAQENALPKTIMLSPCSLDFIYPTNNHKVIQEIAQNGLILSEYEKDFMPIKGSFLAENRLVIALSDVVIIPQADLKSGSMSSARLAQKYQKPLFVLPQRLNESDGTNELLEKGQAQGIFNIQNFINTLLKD

HpDprA(5-217)Y11E = molecular target: T6, HpDprA(5-217)Y11E (Helicobacter pylori 26695, UniProt O25100 5-217, Y11E)
T6 sequence: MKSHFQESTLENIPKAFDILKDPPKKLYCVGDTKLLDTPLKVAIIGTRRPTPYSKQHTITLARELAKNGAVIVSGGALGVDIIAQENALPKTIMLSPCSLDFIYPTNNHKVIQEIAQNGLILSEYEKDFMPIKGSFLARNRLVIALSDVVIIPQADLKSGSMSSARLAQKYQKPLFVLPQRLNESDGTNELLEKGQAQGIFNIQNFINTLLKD

## TTTTTTTTTTTTTTTTTTTTTTTTTTTTTTTTTTT (ssDNA) [dT35]
HpDprA(5-217)H8E
  Kd: 66.3 ± 0.721 nM
HpDprA(5-217)K137E
  Kd: 7.22 ± 0.216 µM
HpDprA(5-217)Y108E
  Kd: 351 ± 6.88 nM
HpDprA(5-217)R52E
  Kd: 9.95 ± 0.367 µM
HpDprA(5-217)R143E
  Kd: 5.47 ± 0.246 µM
HpDprA(5-217)Y11E
  Kd: 55.9 ± 1.82 nM
